Consider one molecule from patent publication US20230357420A1 (VILLARIS THERAPEUTICS, published 2023).

By EC50 (read off the curve) is commonly meant the concentration needed to bring the measured effect to its halfway point. A higher EC50 (read off the curve) goes with lower potency in that assay.

In one assay the target is T1, Rhesus CD122 (rhesus monkey, UniProt Q38J85 27-551 (cynomolgus entry)).
T1 construct: also called rhCD122 on cells
T1 sequence: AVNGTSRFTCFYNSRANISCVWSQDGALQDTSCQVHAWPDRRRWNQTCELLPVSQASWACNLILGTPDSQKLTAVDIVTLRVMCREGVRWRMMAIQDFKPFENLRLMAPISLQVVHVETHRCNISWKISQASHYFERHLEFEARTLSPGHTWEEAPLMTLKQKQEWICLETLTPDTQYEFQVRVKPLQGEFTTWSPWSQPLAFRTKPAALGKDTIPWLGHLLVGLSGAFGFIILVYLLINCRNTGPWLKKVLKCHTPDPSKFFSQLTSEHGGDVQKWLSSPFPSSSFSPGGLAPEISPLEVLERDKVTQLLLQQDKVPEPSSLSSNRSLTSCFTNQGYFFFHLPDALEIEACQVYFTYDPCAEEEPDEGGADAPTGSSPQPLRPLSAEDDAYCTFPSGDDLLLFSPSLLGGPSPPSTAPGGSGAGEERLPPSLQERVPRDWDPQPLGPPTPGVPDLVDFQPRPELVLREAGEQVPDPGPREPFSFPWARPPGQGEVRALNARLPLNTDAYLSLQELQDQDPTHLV
In words: flow cytometry (FACS) on rhIL15Rβ-transfected CHO-K1 cells, anti-human IgG-FITC, GeoMFI. As for the experimental part: (§1) Purified IgGs were tested in FACs for binding to human and rhesus CD122 expressed on CHO-K1 stable cell lines and CHO-K1 wild-type cells. The IgG samples were titrated in three-fold serial dilutions starting at 500 nM to […]. Binding of IgGs was detected with a mouse anti-human IgG conjugated to FITC. Results were analyzed by examining the Mean Fluorescence Intensity (MFI) of 10000 cells per sample in the BL-1 channel detector of a flow cytometer (AttuneTM NxT Acoustic Focusing Cytometer, Invitrogen/ ThermoFisher Scientific).
In general terms: In flow cytometry, cells or beads pass a laser one at a time.

A further assay addresses T2, Human CD122 (human, UniProt P14784 27-551).
T2 construct: also called hCD122; IL2RB
T2 sequence: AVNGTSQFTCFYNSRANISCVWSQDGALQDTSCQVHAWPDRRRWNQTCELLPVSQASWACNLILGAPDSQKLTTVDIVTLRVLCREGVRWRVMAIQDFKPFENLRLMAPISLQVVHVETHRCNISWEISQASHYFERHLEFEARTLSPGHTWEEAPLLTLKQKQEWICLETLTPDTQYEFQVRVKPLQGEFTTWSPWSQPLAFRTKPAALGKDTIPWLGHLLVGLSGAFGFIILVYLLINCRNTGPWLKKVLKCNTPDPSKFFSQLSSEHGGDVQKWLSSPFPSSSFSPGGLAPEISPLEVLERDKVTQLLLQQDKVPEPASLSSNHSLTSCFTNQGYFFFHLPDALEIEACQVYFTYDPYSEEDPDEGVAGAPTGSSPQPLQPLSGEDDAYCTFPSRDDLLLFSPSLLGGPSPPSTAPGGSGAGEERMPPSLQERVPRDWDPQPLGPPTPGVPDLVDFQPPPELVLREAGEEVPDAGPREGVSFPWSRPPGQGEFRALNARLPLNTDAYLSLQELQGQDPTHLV
Description: flow cytometry (FACS) on huIL15Rβ-transfected CHO-K1 cells, anti-human IgG-FITC, GeoMFI. Here is the method: as §1

B1: IgG1-MIKβ1 (humanized) (antibody, V domains shown)
VH: EVQLLESGGGLVQPGGSLRLSCAASGFSVTSYGVHWIRQAPGKGLEWLGVIWSGGSTDYNAAFISRLTISKDNSKNTVYFQMNSLQAEDTAIYYCARAGDYNYDGFAYWGQGTLVTVSS
VL: DIVLTQSPSSLSASVGDRVTITCSGSSSVSFMYWYQQRPGKAPRLLIYDTSNLASGVPSRFSGSGSGTSYTFTISSLQPEDIATYYCQQWSTYPLTFGQGTKVEVK
notes: also called VillMab-1; VillMAB-1
For B1, the entries for the “EC50 (read off the curve)” value in the assay with Rhesus CD122 and with Human CD122 were roughly 0.7 nM and roughly 0.9 nM, respectively.
